Legend:
Gαi3-GDP = assay: NMR perturbation of Gαi3-GDP backbone amide signals; type: binding, human; settings: 30 °C, pH 7.0, TROSY
Procedure: Full-length human Gαi3 (UNIPROT entry P08754) cloned in a pET24d(+) plasmid (a generous gift from Ichio Shimada, University of Tokyo) was used to purify the protein used in NMR experiments. For this, protein expression was induced in BL21 Rosetta (Life Technologies) cell cultures with 1 mM IPTG for 16 h at 23 °C in a modified M9 minimal medium containing 1 g l^−1 15N-NH4Cl, 2 g l^−1 2H-^13C-glucose and 1 g l^−1 of ^2H-^13C-^15N Celtone base powder in ^2H2O with 30 mg l^−1 kanamycin and 34 mg l^−1 chloramphenicol. The pelleted cells were lysed by sonication in 50 mM Tris, 200 mM NaCl, 100 mM KCl and 1 mM DTT at pH 8.0, and the supernatant was loaded on a Ni^2+-loaded His-Trap FF column. […]
All NMR data were measured on a Bruker Avance III 800 MHz (18.8 T) spectrometer equipped with a cryogenically cooled triple resonance z-gradient probe, processed with Topspin (Bruker) and analysed with Sparky. […] Gαi3 spectra were recorded at 30 °C on ^2H-^13C-^15N–Gαi3 samples with a threefold molar excess of GDP in 10 mM HEPES (pH 7.0) with 10 mM MgCl2, 5 mm DTT, 0.01% NaN3 and 5% ^2H2O. […] The assignment of Gαi3 resonances in the presence of a fivefold molar excess of GIV fragment 1,671–1,696 was achieved from the joint analysis of an HNCO and ^1H–^15N TROSY spectra recorded along a titration (at molar ratios 1:0, 1:0.2,1:0.5, 1:1, 1:2 and 1:5). […]

[1] = Circular dichroism and thermal denaturation of GIV-CT; type: physicochemical
Procedure: Circular dichroism measurements were performed on a Jasco J-810 spectropolarimeter (JASCO, Tokyo, Japan). The circular dichroism spectrum was recorded on a GIV-CT protein sample 8.4 μM in PBS (pH 7.0) with 0.2 mM DTT in a 0.2 cm path length quartz cuvette at 25 °C. The thermal denaturation curve from 5 to 95 °C was recorded on the same protein sample and cuvette by increasing temperature at a rate of 1 °C min^−1 and measuring the change in ellipticity at 222 nm.

[2] = system: Gpa1(1–41)-human Gαi3 (36–354) in S. cerevisiae; assay: G-protein activation in yeast (Fus3 phosphorylation); type: cell-based; settings: strain MMY11, ppFus3 immunoblot
Excerpt: G-protein activation assay in yeast
The native G-protein-dependent pheromone response pathway is similarly modified in both strains: the pheromone-activated GPCR (Ste2 or Ste3), endogenous Gα-subunit (Gpa1) and the cell cycle arrest-inducing protein far1 are deleted. In MMY11, the G-protein inhibitor Sst2 is also deleted. Both strains were transformed with a centromeric plasmid (CEN TRP) encoding a chimeric yeast Gpa1(1–41)-human Gαi3 (36–354) protein under the control of the endogenous Gpa1 promoter[68] (courtesy of Mary Cismowski, Nationwide Children's Hospital) using the lithium acetate method. […] Individual colonies were inoculated into 3 ml of SDGalactose-Trp-Ura and incubated overnight at 30 °C to induce the expression of the proteins of interest under the control of the galactose-inducible promoter of pYES2. This starting culture was used to inoculate 20 ml of SDGalactose-Trp-Ura at 0.3 OD600. Exponentially growing cells (∼0.7–0.8 OD600, 4–5 h) were pelleted to prepare samples for immunoblotting (see below). […]
Yeast protein samples for immunoblotting were prepared by acid lysis and precipitation followed by neutralization and solubilization. […] Proteins (∼15–20 μl per lane) were separated by SDS–PAGE, blocked in PBS supplemented with 5% BSA and analysed by sequential incubation with primary and secondary antibodies. […]

Row | Molecule | fraction of assigned peaks with significant chemical shift perturbations (Gαi3-GDP) | overall decrease in signal intensity (median) (Gαi3-GDP; twofold molar excess GIV-CT) | thermal denaturation ([1]; 5 to 95 °C, 1 °C min^−1, ellipticity at 222 nm, PBS pH 7.0) | secondary structure by circular dichroism ([1]; […] in PBS pH 7.0, 0.2 mM DTT, 25 °C) | activation of Gαi3 WT and Gαi3 N256E [2] | activation of Gαi3 ΔC9 [2]
1 | GIV-CT: His-tagged human GIV residues 1,660–1,870 (protein, left off: His tag, N-terminal, kept) SETLESRHHKIKTGSPGSEVVTLQQFLEESNKLTSVQIKSSSQENLLDEVMKSLSVSSDFLGKDKPVSCGLARSVSGKTPGDFYDRRTTKPEFLRPGPRKTEDTYFISSAGKPTPGTQGKIKLVKESSLSRQSKDSNPYATLPRASSVISTAEGTTRRTSIHDFLTKDSRLPISVDSPPAAADSNTTAASNVDKVQESRNSKSRSREQQSS | < 20% | ~3 fold | no cooperative transition | little, if any, secondary structure |  | 
2 | A2bR: human GPCR A2b receptor expressed in yeast (protein, UniProt P29275 1-332, looked up) Adenosine receptor A2b: MLLETQDALYVALELVIAALSVAGNVLVCAAVGTANTLQTPTNYFLVSLAAADVAVGLFAIPFAITISLGFCTDFYGCLFLACFVLVLTQSSIFSLLAVAVDRYLAICVPLRYKSLVTGTRARGVIAVLWVLAFGIGLTPFLGWNSKDSATNNCTEPWDGTTNESCCLVKCLFENVVPMSYMVYFNFFGCVLPPLLIMLVIYIKIFLVACRQLQRTELMDHSRTTLQREIHAAKSLAMIVGIFALCWLPVHAVNCVTLFQPAQGKNKPKWAMNMAILLSHANSVVNPIVYAYRNRDFRYTFHKIISRYLLCQADVKSGNGQAGVQPALGVGL |  |  |  |  | equally | completely blunted

Reference: PMC5454376, “Molecular mechanism of Gαi activation by non-GPCR proteins with a Gα-Binding and Activating motif” (Nature Communications, 2017)
